Measurements as given in paper PMC5573662 (Bioorganic & medicinal chemistry, 2017).
Square brackets hold non-standard residues; d marks the D form. Ends that are not written are not given here. His(π-(CH2)8Ph) = N[C@@H](Cc1cncn1CCCCCCCCc1ccccc1)C(=O)O; pT = C[C@@H](OP(=O)(O)O)[C@H](N)C(=O)O

Molecular target: full-length polo-like kinase 1 (Plk1) (UniProt P53350 1-603)
Test: ELISA

Sequence of full-length polo-like kinase 1 (Plk1) (P53350 whole entry): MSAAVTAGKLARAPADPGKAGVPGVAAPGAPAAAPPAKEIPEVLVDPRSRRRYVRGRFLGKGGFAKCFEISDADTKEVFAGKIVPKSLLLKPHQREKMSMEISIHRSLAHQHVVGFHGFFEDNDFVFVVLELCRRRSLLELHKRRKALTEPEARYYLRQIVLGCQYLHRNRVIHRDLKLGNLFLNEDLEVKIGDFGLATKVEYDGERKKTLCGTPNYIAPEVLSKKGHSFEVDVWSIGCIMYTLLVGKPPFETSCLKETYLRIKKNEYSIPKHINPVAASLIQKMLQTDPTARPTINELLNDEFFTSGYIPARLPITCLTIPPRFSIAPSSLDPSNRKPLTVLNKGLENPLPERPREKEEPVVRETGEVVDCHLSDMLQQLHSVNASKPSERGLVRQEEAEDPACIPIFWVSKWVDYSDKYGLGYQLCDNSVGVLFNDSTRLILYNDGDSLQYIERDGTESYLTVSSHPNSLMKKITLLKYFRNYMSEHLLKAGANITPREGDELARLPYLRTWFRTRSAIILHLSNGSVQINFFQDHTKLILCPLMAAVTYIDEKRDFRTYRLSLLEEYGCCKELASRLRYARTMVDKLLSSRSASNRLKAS

## PL[His(π-(CH2)8Ph)]S[pT] [PLH*SpT (2a)]
  IC50: 181 nM
